Data published in article PMC3649970, “A Unique Spumavirus Gag N-terminal Domain with Functional Properties of Orthoretroviral Matrix and Capsid” (PLoS Pathogens, 2013).
Ends that are not written are not given here.

B2: PFV-Gag-NtD (amino terminal domain of Prototypic Foamy Virus Gag, residues 1-179) (domain or fragment)
chain: MASGSNVEEYELDVEALVVILRDRNIPRNPLHGEVIGLRLTEGWWGQIERFQMVRLILQDDDNEPLQRPRYEVIQRAVNPHTMFMISGPLAELQLAFQDLDLPEGPLRFGPLANGHYVQGDPYSSSYRPVTMAETAQMTRDELEDVLNTQSEIEIQMINLLELYEVETRALRRQLAERS
notes: source: E. coli Rosetta 2 (DE3), purified (Ni-NTA, Superdex 200 SEC); not shown: His-tag, N-terminal, kept

What was measured:
[1] = target: FFV-Gag-NtD (feline foamy virus Gag residues 1-154), His-tagged (feline foamy virus (FFV)); assay: AUC
[2] = target: FFV-Gag-NtD (feline foamy virus Gag residues 1-154), His-tagged (feline foamy virus (FFV)); assay: SEC-MALS
PFV-Gag-NtD = target: T1, PFV-Gag-NtD (Human spumaretrovirus, UniProt P14349); assay: ITC binding of Env1–20 to PFV-Gag-NtD; design: species or system Prototypic Foamy Virus (PFV); details: 1 mM Env peptide injected into 50 µM PFV-Gag-NtD, 25 mM Na-phosphate pH 6.55, 100 mM NaCl, 0.5 mM TCEP, read-out: equilibrium association constant (K) (converted)
T1 construct: HFV ht-(M1-S179); made in house; host or cells: E. coli Rosetta 2 (DE3)
T1 sequence (P14349 1-179): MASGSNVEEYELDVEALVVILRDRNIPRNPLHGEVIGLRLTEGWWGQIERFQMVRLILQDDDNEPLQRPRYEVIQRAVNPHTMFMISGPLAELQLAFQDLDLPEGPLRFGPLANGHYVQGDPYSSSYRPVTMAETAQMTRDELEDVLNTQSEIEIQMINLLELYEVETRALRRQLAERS
From the text: The DNA sequences coding for PFV-Gag residues 1–179 (PFV-Gag-NtD) and FFV residues 1–154 (FFV-Gag-NtD) were amplified by PCR from template plasmids pcziGag4 and pcDWF003 containing the PFV and FFV Gag genes respectively. PCR products were inserted into a pET47b expression vector (Novagen) using ligation independent cloning in order to produce N-terminal His-tag fusions with 3C protease cleavage sites. The correct sequence of expression constructs was verified by automated DNA sequencing (Beckman Coulter Genomics). His-tagged PFV- and FFV-Gag-NtD were expressed in the E. coli strain Rosetta 2 (DE3) and purified using Ni-NTA affinity (Qiagen) and size exclusion chromatography on Superdex 200 (GE healthcare). Selenium was incorporated into PFV-Gag-NtD by replacement of methionine with seleno-methionine in defined culture medium and by inhibition of methionine biosynthesis just prior to IPTG induction. Verification of the processed N-terminal methionine, correct molecular mass and degree of selenium incorporation was obtained by electrospray ionisation mass-spectrometry. Peptides comprising residues 1–20 and 5–18 from the PFV-Env leader region were purchased HPLC purified from Pepceuticals Ltd.
ITC was carried out using an ITC-200 calorimeter (MicroCal). […] Data was analysed using the Origin-based software provided by the manufacturers.

[3] = target: FFV-Gag-NtD (feline foamy virus Gag residues 1-154), His tag removed (feline foamy virus (FFV)); assay: AUC
[4] = target: FFV Env leader peptide 1-30 (Feline foamy virus) (UniProt O56861); assay: given as Ka; details: cited from earlier work
[5] = target: T2, PFV-Gag-NtD (amino terminal domain of Prototypic Foamy Virus Gag, residues 1-179) (Prototypic foamy virus (PFV), UniProt P14349 1-179); assay: AUC
T2 chain: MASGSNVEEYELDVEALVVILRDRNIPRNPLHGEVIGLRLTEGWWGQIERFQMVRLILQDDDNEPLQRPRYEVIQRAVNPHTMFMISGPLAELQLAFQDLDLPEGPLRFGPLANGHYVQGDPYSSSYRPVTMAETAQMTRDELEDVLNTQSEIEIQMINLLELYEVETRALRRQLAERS

[6] = target: B2; assay: AUC; sedimentation velocity of 75 µM equimolar mixtures of Gag-NtD and Env peptide, absorbance at 280 nm; bound fraction from the integrated absorbance of the 3S species in C(S); details: both partners purified
SEC-MALS = target: the molecule itself; assay: SEC-MALS
[7] = system: PFV Env leader peptide (Env-LP), Env1–20; assay: SV-AUC binding of PFV-Gag-NtD mutants to Env1–20 (Env-LP); design: species or system Prototypic Foamy Virus (PFV); details: for Gag-Env binding (in words): 75 µM equimolar Gag-NtD mutant and Env1–20
Description: (§1) Sedimentation velocity experiments were performed in a Beckman Optima Xl-I analytical ultracentrifuge using conventional aluminium double sector centrepieces and sapphire windows. Solvent density and the protein partial specific volumes were determined as described. Prior to centrifugation, samples were prepared by exhaustive dialysis against the buffer blank solution, 20 mM Tris-HCl, 150 mM NaCl and 0.5 mM TCEP, pH 7.5. Centrifugation was performed at 50,000 rpm and 293 K in an An50-Ti rotor. Interference data were acquired at time intervals of 180 sec at varying sample concentration (0.5–2.5 mg/ml). Data recorded from moving boundaries was analysed using both a discrete species model and in terms of the size distribution functions C(S) using the program SEDFIT [90], [91], [92]. For analysis of Env peptide binding, sedimentation velocity experiments were conducted in 3 mm pathlength centrepieces using equimolar mixtures (75 µM) of PFV-Gag-NtD and Env peptides. In these experiments, radial absorbance scans at 280 nm were also recorded along with the interference data.
Data were analysed using a general binding expression, Eq. 1. This expression relates the association constant Ka to the fraction of bound peptide θ (θ = [PL]/[Lt]) in terms of the total concentrations of peptide [Lt] and protein [Pt] and is a modification of the formulae employed in [95], [96]. [drawing 1] (1) In sedimentation velocity experiments θ was determined from the integrated absorbance of the 3S species in the C(S) function that best fits the sedimentation data. As equimolar ratios of peptide and protein were employed ([Lt] = [Pt]) Eq. 1 can be simplified and equilibrium association constants determined from Eq. 2. [drawing 2] (2)

[8] = Sedimentation equilibrium AUC of Gag-NtDs; assay type: physicochemical; details: for weight averaged molecular weight, sedimentation equilibrium: multispeed, global fit with single ideal molecular species model; for Mw (sedimentation equilibrium): weight averaged, Global SE analysis, pH 7.5
Description: Sedimentation equilibrium experiments were performed in a Beckman Optima XL-I analytical ultracentrifuge using charcoal filled Epon six-channel centrepieces in an An-50 Ti rotor. Prior to centrifugation, samples were dialyzed exhaustively against the buffer blank, 20 mM Tris-HCl, pH 7.5, 150 mM NaCl, 0.5 mM TCEP. After centrifugation for 18 h, interference data was collected 2-h intervals until no further change in the profiles was observed. The rotor speed was then increased and the procedure repeated. Data were collected on samples of different concentrations of FFV- and PFV-Gag-NtD (14–100 µM) at three speeds and the program SEDPHAT [93], [94] was used to determine weight-averaged molecular masses by nonlinear fitting of individual multi-speed equilibrium profiles (A versus r) to a single-species ideal solution model.

[9] = SEC-MALLS solution molecular weight of Gag-NtDs; assay type: physicochemical; details: Superdex 200 10/300 GL, 20 mM Tris-HCl, 150 mM NaCl, 0.5 mM TCEP, pH 8.0; 12-1.5 mg/ml, concentration invariant
Description: Size exclusion chromatography coupled multi-angle laser light scattering (SEC-MALLS) was used to determine the molar mass of FFV- and PFV-Gag-Ntd. Samples ranging from 1.5 to 12.0 mgml^−1 were applied in a volume of 100 µl to a Superdex 200 10/300 GL column equilibrated in 20 mM Tris-HCl, 150 mM NaCl and 0.5 mM TCEP, pH 8.0, at a flow rate of 0.5 ml/min. The scattered light intensity and the protein concentration of the column eluate were recorded using a DAWN-HELEOS laser photometer and OPTILAB-rEX differential refractometer respectively. The weight-averaged molecular mass of material contained in chromatographic peaks was determined from the combined data from both detectors using the ASTRA software version 6.0.3 (Wyatt Technology Corp., Santa Barbara, CA, USA).

[10] = Sedimentation velocity AUC of Gag-NtDs; assay type: physicochemical; details: for ƒ/ƒ0 (D20,w): frictional ratio calculated from D20,w; for ƒ/ƒ0 (D20,w) / ƒ/ƒ0 (S20,w): discrete component analysis; for ƒ/ƒ0 (S20,w): frictional ratio calculated from S20,w; for sedimentation coefficient S20,w: no concentration dependency over the range measured; for D20,w (×10^7) / Mw C(S) / S20,w (×10^13): sedimentation velocity; for D20,w (×10^7) / S20,w (×10^13): 293 K, pH 7.5, Crange 20–90 µM (PFV), 30–130 µM (FFV); for Mw C(S): C(S) analysis; for S20,w (×10^13): discrete component analysis, 50,000 rpm; for Mw (S/D): weight averaged molecular weight from discrete component analysis; for ƒ/ƒ0 C(S): weight-averaged frictional ratio from best fit C(S) distribution function
Description: as §1

FFV-Gag-NtD (feline foamy virus Gag residues 1-154), His-tagged (domain or fragment)
stoichiometry N [1]: 2 | stoichiometry N [2]: 2

MAPPMTLQQWIIWKKMNKAH [Env1–20]
Kd (PFV-Gag-NtD): 6.67 µM

FFV-Gag-NtD (feline foamy virus Gag residues 1-154), His tag removed (domain or fragment)
stoichiometry N [3]: 2

FFV Gag (from UniProt O56860)
Kd [4]: 15.4 µM

B1: PFV Env leader peptide residues 5-18 (peptide)
peptide: MTLQQWIIWKKMNK
notes: source: synthetic peptide, bought HPLC purified: Pepceuticals Ltd
Kd [5]: 49.4 µM | Ka [6]: 20000 M⁻¹

B2
stoichiometry N (SEC-MALS): 2

B3: triple substitution where Val14, Val18 and Leu21 were all substituted by serine (protein, UniProt P14349 1-179, looked up, variant V14S V18S L21S)
chain: MASGSNVEEYELDSEALSVISRDRNIPRNPLHGEVIGLRLTEGWWGQIERFQMVRLILQDDDNEPLQRPRYEVIQRAVNPHTMFMISGPLAELQLAFQDLDLPEGPLRFGPLANGHYVQGDPYSSSYRPVTMAETAQMTRDELEDVLNTQSEIEIQMINLLELYEVETRALRRQLAERS
modifications: N-terminal His-tag
Gag-Env binding (in words) [7]: reduced binding to an undetectable level

B4: Asn29 to glutamine (protein, UniProt P14349 1-179, looked up, variant N29Q)
chain: MASGSNVEEYELDVEALVVILRDRNIPRQPLHGEVIGLRLTEGWWGQIERFQMVRLILQDDDNEPLQRPRYEVIQRAVNPHTMFMISGPLAELQLAFQDLDLPEGPLRFGPLANGHYVQGDPYSSSYRPVTMAETAQMTRDELEDVLNTQSEIEIQMINLLELYEVETRALRRQLAERS
modifications: N-terminal His-tag
Gag-Env binding (in words) [7]: little effect on Env binding

B5: PFV-Gag-NtD: PFV-Gag residues 1–179, N-terminal His-tag fusion expressed in E. coli (protein, UniProt P14349 1-179, looked up, fragment)
chain: MASGSNVEEYELDVEALVVILRDRNIPRNPLHGEVIGLRLTEGWWGQIERFQMVRLILQDDDNEPLQRPRYEVIQRAVNPHTMFMISGPLAELQLAFQDLDLPEGPLRFGPLANGHYVQGDPYSSSYRPVTMAETAQMTRDELEDVLNTQSEIEIQMINLLELYEVETRALRRQLAERS
modifications: N-terminal His-tag
notes: PFV-Gag residues 1–179, N-terminal His-tag fusion expressed in E. coli
weight averaged molecular weight, sedimentation equilibrium [8]: 44 kDa | Mw (sedimentation equilibrium) ([8]; Crange 30–100 µM, His-tagged): 44±2 kD | solution molecular weight (SEC-MALLS) [9]: 40.0 kDa | ƒ/ƒ0 (D20,w) [10]: 1.52 | ƒ/ƒ0 (S20,w) [10]: 1.48 | sedimentation coefficient S20,w [10]: 3.08 | D20,w (×10^7) [10]: 5.96±0.04 cm^2 sec^−1 | Mw C(S) [10]: 48.2±1 kD | S20,w (×10^13) [10]: 3.08±0.02 sec | Mw (S/D) [10]: 46.7±0.2 kD | ƒ/ƒ0 C(S) [10]: 1.54

B6: Val14/Leu21 to serine (protein)
chain: MASGSNVEEYELDSEALVVISRDRNIPRNPLHGEVIGLRLTEGWWGQIERFQMVRLILQDDDNEPLQRPRYEVIQRAVNPHTMFMISGPLAELQLAFQDLDLPEGPLRFGPLANGHYVQGDPYSSSYRPVTMAETAQMTRDELEDVLNTQSEIEIQMINLLELYEVETRALRRQLAERS
modifications: left off: His-tag, N-terminal, state not stated
reduction of Gag-Env affinity (fold) ([7]; 75 µM equimolar Gag-NtD mutant and Env1–20, relative to wt PFV-Gag-NtD): twenty-fold

B7: FFV-Gag-NtD: FFV Gag residues 1–154, N-terminal His-tag fusion expressed in E. coli (protein, UniProt O56860 1-154, looked up, fragment)
chain: MARELNPLQLQQLYINNGLQPNPGHGDIIAVRFTGGPWGPGDRWARVTIRLQDNTGQPLQVPGYDLEPGIINLREDILIAGPYNLIRTAFLDLEPARGPERHGPFGDGRLQPGDGLSEGFQPITDEEIQAEVGTIGAARNEIRLLREALQRLQA
modifications: N-terminal His-tag
notes: FFV Gag residues 1–154, N-terminal His-tag fusion expressed in E. coli
weight averaged molecular weight, sedimentation equilibrium [8]: 33.7 kDa | Mw (sedimentation equilibrium) ([8]; Crange 14–50 µM, FFV-154 sample with the His tag removed): ^h33.7±1 kD | solution molecular weight (SEC-MALLS) [9]: 34.0 kDa | ƒ/ƒ0 (D20,w) [10]: 1.42 | ƒ/ƒ0 (S20,w) [10]: 1.49 | sedimentation coefficient S20,w [10]: 2.72 | D20,w (×10^7) [10]: 6.81±0.3 cm^2 sec^−1 | Mw C(S) [10]: 37.4±1 kD | S20,w (×10^13) [10]: 2.72±0.01 sec | Mw (S/D) [10]: 36.1±1.5 kD | ƒ/ƒ0 C(S) [10]: 1.47
